Reference: publication doi:10.1101/317651, “Poly(ADP-ribose) polymerase 1 Searches DNA via a ‘Monkey Bar’ Mechanism”

What was measured:
Details in all cases: protein: recombinant; tags: His tag (Ni-NTA, pET28a); blunt
PARP1 W589A = PARP1 W589A (Homo sapiens, UniProt P09874 1-1014, W589A); assay: stopped-flow fluorescence anisotropy; K1; kinetically derived, Scheme 2 (no ternary complex); 50 mM Tris-HCl pH 7.5, 50 mM NaCl, 1 mM MgCl2, 0.1 mM EDTA, 0.01% IGEPAL; 20 °C (stated for association)
PARP1 ΔZn1 = PARP1 ΔZn1 (Homo sapiens, UniProt P09874 1-1014, del2-96); assay: stopped-flow fluorescence anisotropy; K1, first DNA; kinetically derived; 50 mM Tris-HCl pH 7.5, 50 mM NaCl, 1 mM MgCl2, 0.1 mM EDTA, 0.01% IGEPAL; 20 °C (stated for association)
Sequence of PARP1 ΔZn1 (P09874 other isoform, or with tags, fused parts or gaps del2-96 | mutant): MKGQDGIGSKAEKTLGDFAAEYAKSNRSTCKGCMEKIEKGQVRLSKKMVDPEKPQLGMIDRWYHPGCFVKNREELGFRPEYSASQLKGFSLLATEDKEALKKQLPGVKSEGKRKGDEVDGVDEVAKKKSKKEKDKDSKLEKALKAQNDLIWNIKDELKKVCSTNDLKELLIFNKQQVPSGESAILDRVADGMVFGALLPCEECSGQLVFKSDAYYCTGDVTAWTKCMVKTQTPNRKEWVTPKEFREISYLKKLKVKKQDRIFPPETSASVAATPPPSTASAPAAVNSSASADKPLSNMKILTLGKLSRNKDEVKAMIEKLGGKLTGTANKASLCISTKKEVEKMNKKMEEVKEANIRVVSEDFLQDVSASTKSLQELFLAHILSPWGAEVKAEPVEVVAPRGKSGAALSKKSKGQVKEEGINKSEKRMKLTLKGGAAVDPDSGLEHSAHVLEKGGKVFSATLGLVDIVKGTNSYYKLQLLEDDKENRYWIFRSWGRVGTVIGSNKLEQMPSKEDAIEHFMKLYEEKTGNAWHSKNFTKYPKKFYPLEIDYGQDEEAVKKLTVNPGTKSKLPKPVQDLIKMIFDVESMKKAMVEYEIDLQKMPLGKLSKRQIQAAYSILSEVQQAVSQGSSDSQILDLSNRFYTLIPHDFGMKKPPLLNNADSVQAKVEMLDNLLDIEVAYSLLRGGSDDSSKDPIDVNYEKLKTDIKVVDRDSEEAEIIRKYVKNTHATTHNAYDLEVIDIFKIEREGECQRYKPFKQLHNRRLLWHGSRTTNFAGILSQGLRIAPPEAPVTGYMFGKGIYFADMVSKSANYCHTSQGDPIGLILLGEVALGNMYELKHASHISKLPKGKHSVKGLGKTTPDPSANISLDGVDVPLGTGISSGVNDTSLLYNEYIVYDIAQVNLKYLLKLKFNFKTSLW

PARP1 wild-type = PARP1 wild-type (Homo sapiens, UniProt P09874 1-1014); assay: as above
Sequence of PARP1 wild-type (P09874 whole entry): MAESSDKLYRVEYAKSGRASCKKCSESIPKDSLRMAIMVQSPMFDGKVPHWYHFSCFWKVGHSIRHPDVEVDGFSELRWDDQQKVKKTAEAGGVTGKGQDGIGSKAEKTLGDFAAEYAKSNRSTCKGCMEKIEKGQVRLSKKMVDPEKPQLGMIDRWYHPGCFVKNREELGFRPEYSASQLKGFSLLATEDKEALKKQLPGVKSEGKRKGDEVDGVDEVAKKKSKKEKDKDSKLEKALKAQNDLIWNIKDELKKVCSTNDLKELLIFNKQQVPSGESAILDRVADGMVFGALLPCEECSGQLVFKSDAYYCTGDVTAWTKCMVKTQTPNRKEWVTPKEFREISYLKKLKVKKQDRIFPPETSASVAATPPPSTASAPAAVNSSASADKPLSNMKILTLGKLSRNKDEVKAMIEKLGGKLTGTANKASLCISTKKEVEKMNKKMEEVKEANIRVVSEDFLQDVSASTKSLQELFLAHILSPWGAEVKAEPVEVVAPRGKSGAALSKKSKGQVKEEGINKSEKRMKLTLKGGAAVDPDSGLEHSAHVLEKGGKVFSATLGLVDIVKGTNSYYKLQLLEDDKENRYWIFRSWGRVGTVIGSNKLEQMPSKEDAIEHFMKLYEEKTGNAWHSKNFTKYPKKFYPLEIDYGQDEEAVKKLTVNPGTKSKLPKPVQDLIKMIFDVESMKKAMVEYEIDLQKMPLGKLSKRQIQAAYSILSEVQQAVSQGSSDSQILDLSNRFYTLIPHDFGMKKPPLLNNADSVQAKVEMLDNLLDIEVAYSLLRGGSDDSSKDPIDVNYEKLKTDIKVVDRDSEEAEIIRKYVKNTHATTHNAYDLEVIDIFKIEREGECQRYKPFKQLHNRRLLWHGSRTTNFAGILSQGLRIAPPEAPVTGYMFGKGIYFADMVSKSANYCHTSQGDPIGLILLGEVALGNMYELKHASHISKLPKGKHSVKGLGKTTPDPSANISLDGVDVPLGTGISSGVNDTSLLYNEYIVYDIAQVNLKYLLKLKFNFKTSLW

Sequence of PARP1 W589A (P09874 whole entry W589A): as the sequence (P09874 whole entry) above, with W589A counted along it

B1: p18mer* (dsDNA)
DNA 1: GGGTTGCGGCCGCTTGGG
DNA 2: CCCAAGCGGCCGCAACCC
modifications: 5'-phosphate
Kd (PARP1 W589A): 4.9 ± 1.1 nM
Kd (PARP1 ΔZn1): < 2.7 nM
Kd (PARP1 wild-type): < 3.2 nM
